Experimental data published in a protein production outcome set (Wang et al. 2014).

Test: label from the status in PepcDB records

Sequence | protein production
MADVAVLNIDSVICVNKNNDKSTPLTQLFLVLVAAESFYPTRRFVGIRVKRRQHQHLLESLVHSTAKQQGDFTKTAELATELLCQNLAVSLVSIWIFSADQGTQSLVAQFGSMALQDTYRPSLLHTVPRYLNELKNYRHIDAGNTLIDPRLTELVDSYFIPRQILSSLDVGIRINGHLEGVLCIERAQVTHHWHDSEIHLACQMADQLALTLATKHAYDKEERLSLFRCAIEQSRQMSMLINLHTEKVEYVNQAHEDITGIARDKSIGTNLRDLTFFRQHNALAEQTLAKIFRGDQAKGEVQFSRTDGSRYWLKYIVSQFITDRGNHYALVSGEENSDEHNYKAELERLAWRCGLTGLNNRSHFNRVLERTTHGLLLLVDLVAFKRFNDTYGHENGDSLLIEVGRRLKHFSEINKATEIARVGSDEFAVLLTDDNAVYDLDYFSTRLYQHLAMPILIGREQVEPKPALAVVDIASVANLFAPLTCADIAVQYAKKKKGTAIQVFNSTLLSAFKEDAQIERDLHSAIRGRQFELYYQPLRDLEQQTYIGAEALIRWHHPKKGVLYPGAFIDIAEQSGMINAIGSWVLEAACRQLNIWQHHNADLSMHVNVSARQFFSGNLYEQVWQLLTRYRLKPKTLILEITETELMGDIRHATLLCQELAELGVGLAIDDFGTGYSSMRYLKQFPISKLKIDRSFISDLTISRESQEIVSAIIAMANALNISLTAEGVETAEQEAFLAKSLCHQAQGFLYSPALREPEFAQFLLTAKQPNLIAH | failed
MADWTRAQSSGAVEEILDRENKRMADSLASKVTRLKSLALDIDRDTEDQNRYLDGMDSDFTSVTGLLTGSVKRFSTVARSGRDNRKLLCGMAVVLIVAFFILSYLLSRTRT | failed
MAEAIFALDVGTRKVAGLVLAQGKKGYHIQAAAVVEHQQRAMLDGQIHDIPQVALAIQDVKGQLEKKLHISLKEAAVAAAGRALKTWRASATSQLSPAQEIAPQAVLALEAAAVQEAEKLLLEASEQPLAYHCVGYSVVGYNLDGHPIGNLVGQRGQSMTAEVIATFLPRVVVDSLVTALERAGLAMHSLTLEPIAASAVAVPAAMRGLNLALVDIGAGTSDIAITGQGTISGYAMVPSAGDEITEALASALILDFNTAERVKRQLSTRENLTFTDVVGQRHTLAAAELMEIIKPAVTELARQVATQIILLNGKPPQAVLLIGGGSLTPGLAAALAGQLEISPERVAVRGREVLNGISGAKNLQGPQAITPIGIAITALKREGLGLARVIVNGRPVHFLAGQQMTVTQALLAAGIPARHLYGRPGRGLGVEVNGRLTFLRGQPGEPGKILVNEAPATLETVVKAGDHIIVTPGRDGADAWGTVGDLVPELAPKTITFNGRRITLEPEIIMNGNRVDYRTPVQDQARITYNPLDTVARVLEYLGEPLDGPVLLNGQQVRPEAPIKDGDNLVTGAGATGRNINITINGRPATLRVQAGEALFTDVFNYLDFPSSPPPGRKTLVMEVNGRPAEFTTPLAEGDAVTLRWDP | failed
MAEASPQPGRYFCHCCSVEIVPRLPDYICPRCESGFIEELPEETRNTENGSAPSTAPTDQNRQPFENVDQHLFTLPQGYSQFAFGIFDDSFEIPTFPPGAQADDGRDPESRREREHQSRHRYGARQPRARLTARRATGRHEGVPTLEGIIQQLVNGIISPAAVPSLGLGPWGVLHSNPMDYAWGANGLDTIITQLLNQFENTGPPPADKEKIQALPTVPVTEEHVGSGLECPVCKEDYALGESVRQLPCNHLFHDSCIVPWLEQHDSCPVCRKSLTGQNTATNPPGLTGVGFSSSSSSSSSSSPSNENATSNS | not failed
MAEEEVGNSQRQSEEIEAMAAIYGEEWCVIDENAKIFCIRVTDFMDDPKWTLCLQVMLPSEYPGTAPPSYQLNAPWLKGQERADLSNSLEEIYVHNMGESILYQWVEKIRDALIQKSQITEPDPDVKKKTEEVEVESEEDPILEHPPENPVKTLDLKISEETQPETEELPPVAHGVPITDRRSTFQAHVAPVVCPEQVKLVLAKLYENKKIASATHNIYAYRIFCEDKQTFLQDCEDDGETAAGGRLLHLMEILNVKNVMVVVSRWYGGILLGPDRFKHINNCARNILVEKNFTNTPDESTKNLGKKKVKKDKKKNDH | failed
MAEFPASLLILNGKSTDNLPLREAIMLLREEGMTIHVRVTWEKGDAARYVEEARKFGVATVIAGGGDGTINEVSTALIQCEGDDIPALGILPLGTANDFATSVGIPEALDKALKLAIAGDAIAIDMAQVNKQTCFINMATGGFGTRITTETPEKLKAALGSVSYIIHGLMRMDTLQPDRCEIRGENFHWQGDALVIGIGNGRQAGGGQQLCPNALINDGLLQLRIFTGDEILPALVSTLKSDEDNPNIIEGASSWFDIQAPHDITFNLDGEPLSGQNFHIEILPAALRCRLPPDCPLLR | not failed
MAEHPIQGLMETAMESIKEMVDVNTIVGDAVQAPDGTVIIPISKVTFGFAAGGGEFASCCSVDEKGEDSSDDSSKPEIKFPFAGGSGAGVSINPVAFMVVGQGQIKLLPVNINSSLEKILDLIPEIIEKTKDSVKKNLKVKKEIKPGNGESCAKSSKEDENELEHHHHHH | not failed
MAEISHPPMEQLQDLEYCIDSNPPWPETVLLAFQNYILMLGTSAFIPALLVPAMGGSDGDRARVIQTLLFVAGIKTLLQALFGTRLPAVVGGSLAYVVPIAYIINDSSLQKISNDHERFIHTMRAIQGALIVASSIQIILGYSQVWGLFSRFFSPLGMAPVVGLVGLGMFQRGFPQLGNCIEIGLPMLLLVIGLTQYLKHVRPFKDVPIFERFPILICVTIVWIYAVILTASGAYRGKPSLTQHSCRTDKANLISTAPWFKFPYPLQWGPPTFSVGHSFAMMSAVLVSMVESTGAYIAASRLAIATPPPAYVLSRGIGWQGIGVLLDGLFGTGTGSTVLVENVGLLGLTRVGSRRVVQVSAGFMIVFSTLGKFGAVFASIPVPIYAALHCILFGLVAAVGLSFLQFTNMNSMRNLMITGLSLFLGISIPQFFAQYWDARHYGLVHTNAGWFNAFLNTLFMSPATVGLIIAVFMDNTMEVERSKKDRGMPWWVKFRTFRGDNRNEEFYTLPFNLNRFFPPT | failed
MAEKALATLKELAFLEDPSPVERDAAIQRFEYTFEAFWKALQAYLREKEGLEGASPKGVIRLAREVGLLRDEEARLALGMVDDRSLTVHTYNEPLARAIFRRLPDYARLMEQVLGRLRR | not failed
MAEKEKKTKKKKKKEKHQSSDISFKPSSDVKGLKFGGQIIVKSFTIRRARTFELLKLLSLPSSSSPPLLSTAAYLPTNFTILAHHAWHTLTLGLGTRKSKVVVFVFETEAMKSSVVAAEGGIWPSEIPLGDVNKKMIRKLKNWEMARFKFRKGCITFYVYAVRNAGNEGFAAAEDLKVILQAVVALKDFMDHTAMLVMPHQKSINYSSCPPFAMAH | failed
MAEKLLHTAESDAGIGSWVLHMESGRLEWSQAVHDIFGTDSATFDATEDAYFQRVHPDDRARVRRELDRHVLGDRPFDVEYRIVRPDGQVRELLERNHIQRQASGQVDHLWGTVIDMTEHKQLKRQLQLSQLAVEHCSEGIAIADEGLDWLYVNPALARMGGLTMADPSQLSGLFMAPGVEARLEREALRELLDASGAWQGELLLARRGAAPLPVLASATRLRDEDGRLLSVWVVSDISGMKESERRLHALAFFDGLTGLANRALFGERLRWHLQNEPAGGRLAILFLDLNGFKQVNDLLGHEAGDQVLREVARRLQAGCRPGELAARWGGDEFAVLLPGVADDAVLAARLRELREAARAERWGGGRWLRVSASLGAAVYPESAEDAERLIQLADRAMYRAKSEGGGQVWLHDGGGLRTLAGADCGA | failed
MAEKSNKLDHIGIAVTSIKDVLPFYVGSLKLKLLGMEDLPSQGVKIAFLEIGESKIELLEPLSEESPIAKFIQKRGEGIHHIAIGVKSIEERIQEVKENGVQMINDEPVPGARGAQVAFLHPRSARGVLYEFCEKKEQ | not failed
MAEKSQIPDNNNNTSSSAKKPTPEIGSGSGKRYYNPPESVNPDQATLREQWKFAIRQYSKWYSHAWGTAILAGGFFFGLGWIIKGSNPLPSLQSSSKPRDEEK | failed
MAELIHSTIGRLLEQTADAYPDRDAVVYPDRNIRYTYAQFDSLCRQTAKGLMRMGIGKGDHVAIWASNISEWLAVQFATAKIGAVLVTVNTNYQAHELDYLLKQSDAAALIIMDSYRGTSYPDIVNSLIPELQEAKPGQLKSERYPFLKTLIYIGNKRLSGMYHWDDTEILAKTVTDAELEERMNSLDKDNVINMQYTSGTTGFPKGVMLTHFNVINNAANIAECMALTSQDRMCIPVPFFHCFGCVLGVLACVSVGAAMIPVQEFDPVTVLKTVEKEKCTVLHGVPTMFIAELHHPDFDAYDLSTLRTGIMAGSPCPSEVMKAVIERMGMKDITIAYGQTEASPVITQTRANDSFIRRVETTGRALPHTEVKIVEPGTCQEVQRGMQGELCTRGYHVMKGYYKDKDATRKAINHDGWLFTGDLAVMDEDGYCRITGRLKDMLIRGGENIYPREIEEFLYQHPAVLDVQVVGVPDAKFGEEAAAWIKLKDGKSVSPDELKAYCKGKIARHKIPRYVIFTDDYPMTASGKIQKY | not failed
MAELLAAGPSGVAGAVARAMERSAPGSGASWYGGDHTDFRDGVFLREVIGVQVVVQEGGTAVPEAMTGLPPRPGGFTGRDRETEDLLRALDPDGAQSAAAPVASVSGLGGIGKTALAVETAHLARERGWFPGGILFIDLHGYDREPVTADRSLRTLLHALGIPPEHMPTTTDERAALYRSTLAVRAGERGGMLVLADNASSAEQVRPLLPGDFRHRVLVTSRDRLPQLGARLLPLDELGTREAYELLDRALRIADPHDGRVGDDPGTTGRLASLCGHLPLALQIAAALLAADPAKPVSELVAELAEAHDRLDHLDDGERSVRAAFELSYRRLPPEQARLLRLLALAPGPEVSDEVVAALVGADRPPVRDQHALARAHLVERGHTRGSWRLHDLVRVFGAGVVARAEGDAARARVLRHYLERARAADARLKPRTEDDEGTRPFRSREEALAWFDAERAGLVAAVQWATDRQLAADAVRLAGALGEYLDWRRRFDDSVTVCGAVCAAARRAGDEAAEAAAWNRTGTALRGNRRLREAYDAHRRAHDLYDALGHDNGRAMALSNLGAILGDVGQVDDAVDAFRLALGLFRRTGDRHSEAGVWNNLALILRKSGRVDEALDALRSALGLYRETGDRPREGRARHNYAVALNARGRTAEAVTACLDSLDICEEFEDWHGAARTLYALGLVHETAGDAERARVRMTQAADAYERAGSPKEAEQARRAARLTGPAPTGTPAPAAPPDRTADSGPPGPRPPGVPGNAGP | failed
MAENHCELLPPAPSGLGAGLGGGLCRRCSAGMGALAQRPGGVSKWVRLNVGGTYFLTTRQTLCRDPKSFLYRLCQADPDLDSDKDETGAYLIDRDPTYFGPVLNYLRHGKLVINKDLAEEGVLEEAEFYNITSLIKLVKDKIRERDSRISQMPVKHVYRVLQCQEEELTQMVSTMSDGWKFEQLVSIGSSYNYGNEDQAEFLCVVSKELHNTPYGTTSEPSEKAKILQERGSRM | not failed
MAEPKQSSLSEVKTNVIGSRKEEKESMFHGKETHGRSEDIDEKTRVDDVKGPGVLGRMMEEMEAIVDAVTPNKSSDK | failed
MAEPVQEELSVLAAIFCRPHEWEVLSRSETDGTVFRIHTKAEGFMDADIPLELVFHLPVNYPSCLPGISINSEQLTRAQCVTVKEKLLEQAESLLSEPMVHELVLWIQQNLRHILSQPETG | not failed
MAEQDLTMIVGTYTSGDSKGLYSFRFNEENGTATALSEAEVENPSYLVPSADGKFIYAVSEFSNEQAAANAFAFNKEEGTFRLLNTQKTGGEDPCYIITNGSNVVTANYSGGSISVFPIDKDGSLLPASEVVKFKGSGADKERQEKPHLHCVRITPDGKYLFADDLGTDQIHKFIVNPNAKADNEDVFLKEGSPASYKVEAGSGPRHLTFAPNGSYAYLINELSGTVIAFEYNDGELKEIQTIAADTVGAKGSGDIHISPDGKFLYASNRLKADGLAIFSIHPENGMLTKVGYQLTGIHPRNFIITPNGKYLLVACRDSNVIQVYERDTDTGLLTDIRKDIKVDKPVCIKFVPLEHHHHHH | not failed
